Assays:
myelofibrosis patients = conditions: anemic myelofibrosis patients; cited from earlier work
[1] = test system: patients with a myeloproliferative disorder; conditions: cited from earlier work; for toxicity: patients with splenomegaly
human TGFβ2 = target: T1, human TGFβ2 (Homo sapiens, UniProt P61812); experiment: Reporter gene assay in A549 cells (pGL3(CAGA)12), inhibition of TGFβ2 activity; assay type: cell-based; conditions: Summary of Ligand Selectivity; cell names the ligand in this class
T1 construct: purchased PeproTech
T1 sequence (P61812 303-414 limits assumed): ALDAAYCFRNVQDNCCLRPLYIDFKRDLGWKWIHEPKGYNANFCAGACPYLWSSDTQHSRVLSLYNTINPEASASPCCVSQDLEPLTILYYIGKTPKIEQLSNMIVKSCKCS
Excerpt: (§1) A reporter gene assay in A549 cells was used to determine the ability of hTβRII-hFc variants to inhibit activity of TGFβ1, TGFβ2, and TGFβ3. This assay is based on a human lung carcinoma cell line transfected with a pGL3(CAGA)12 reporter plasmid (Dennler et al., 1998, EMBO 17: 3091-3100) as well as a Renilla reporter plasmid (pRLCMV) to control for transfection efficiency. The CAGA motif is present in the promoters of TGFβ-responsive genes (for example, PAI-1), so this vector is of general use for factors signaling through SMAD2 and SMAD3.
(§2) On the first day of the assay, A549 cells (ATCC®: CCL-185™) were distributed in 48-well plates at 6.5×10^4 cells per well. On the second day, a solution containing 10 μg pGL3(CAGA)12, 100 ng pRLCMV, 30 μl X-tremeGENE 9 (Roche Applied Science), and 970 μl OptiMEM (Invitrogen) was preincubated for 30 min, then added to Eagle's minimum essential medium (EMEM, ATCC®) supplemented with 0.1% BSA, which was applied to the plated cells (500 μl/well) for incubation overnight at […]. On the third day, medium was removed, and cells were incubated overnight at 37° C. with a mixture of ligands and inhibitors prepared as described below.
(§3) Serial dilutions of test articles were made in a 48-well plate in a 200 μl volume of assay buffer (EMEM+0.1% BSA). An equal volume of assay buffer containing the test ligand was added to obtain a final ligand concentration equal to the EC50 determined previously. Human TGFβ 1, human TGFβ2, and human TGFβ3 were obtained from PeproTech. Test solutions were incubated at 37° C. for 30 minutes, then 250 μl of the mixture was added to all wells. Each concentration of test article was determined in duplicate. After incubation with test solutions overnight, cells were rinsed with phosphate-buffered saline, then lysed with passive lysis buffer (Promega E1941) and stored overnight at −70° C. On the fourth and final day, plates were warmed to room temperature with gentle shaking. Cell lysates were transferred in duplicate to a chemiluminescence plate (96-well) and analyzed in a luminometer with reagents from a Dual-Luciferase Reporter Assay system (Promega E1980) to determine normalized luciferase activity.

human TGFβ1 = target: T2, human TGFβ1 (Homo sapiens, UniProt P01137); experiment: Reporter gene assay in A549 cells (pGL3(CAGA)12), inhibition of TGFβ1 activity; assay type: cell-based; conditions: for inhibition of TGFβ1 activity / signaling (in words): cell-based reporter assay; for IC50: A549 reporter gene assay, hTGFβ1 640 pg/ml
T2 construct: purchased PeproTech
T2 sequence (P01137 279-390 limits assumed): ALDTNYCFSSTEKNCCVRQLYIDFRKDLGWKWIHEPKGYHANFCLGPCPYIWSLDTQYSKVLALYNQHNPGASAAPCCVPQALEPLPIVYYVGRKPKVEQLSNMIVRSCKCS
Excerpt: as §1, §2, §3

human TGFβ3 = target: T3, human TGFβ3 (Homo sapiens, UniProt P10600); experiment: Reporter gene assay in A549 cells (pGL3(CAGA)12), inhibition of TGFβ3 activity; assay type: cell-based; conditions: for inhibition of TGFβ3 activity / signaling (in words): cell-based reporter assay; for IC50: A549 reporter gene assay, hTGFβ3 270 pg/ml
T3 construct: purchased PeproTech
T3 sequence (P10600 301-412 limits assumed): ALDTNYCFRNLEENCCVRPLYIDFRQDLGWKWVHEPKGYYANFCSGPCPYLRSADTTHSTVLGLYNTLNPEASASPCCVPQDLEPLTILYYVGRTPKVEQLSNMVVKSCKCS
Excerpt: as §1, with “efficiency.” for “efficiency. The CAGA motif is present in the promoters of TGFβ-responsive genes (for example, PAI-1), so this vector is of general use for factors signaling through SMAD2 and SMAD3.”
as §2
as §3, with “An equal volume of assay buffer containing the test ligand was added to obtain a final ligand concentration equal to the EC50 determined previously.” left out

[2] = Summary of Ligand Selectivity, cell names the ligand in this class
[3] = third experiment (C-terminal truncation, N70D)

## C#C[C@]1(O)CC[C@H]2[C@@H]3CCC4=Cc5oncc5C[C@]4(C)[C@H]3CC[C@@]21C [danazol]
Myelofibrosis patients
  response rate / responses in anemia (% of patients): around 20%

## NC(=O)NO [HC, Hydroxycarbamide]
[1]; patients treated with HC
  patients with reductions in spleen size from 25%-50%: up to 35%
[1]
  toxicity: exacerbate cytopenias

## Nc1nc(Cl)nc2c1ncn2[C@H]1C[C@H](O)[C@@H](CO)O1 [cladribine]
[1]
  toxicity: severe but reversible cytopenias
[1]; symptomatic splenomegaly
  spleen responses / response rate: up to 50%

B1: TβRIIshort(29-159)-G2Fc: N-terminally truncated (6 aa) short-isoform ECD fused to IgG2 Fc; SEQ ID NO: 29 (unprocessed), 55 (mature) (protein)
chain: QKSVNNDMIVTDNNGAVKFPQLCKFCDVRFSTCDNQKSCMSNCSITSICEKPQEVCVAVWRKNDENITLETVCHDPKLPYHDFILEDAASPKCIMKEKKKPGETFFMCSCSSDECNDNIIFSEEYNTSNPDTGGGVECPPCPAPPVAGPSVFLFPPKPKDTLMISRTPEVTCVVVDVSHEDPEVQFNWYVDGVEVHNAKTKPREEQFNSTFRVVSVLTVVHQDWLNGKEYKCKVSNKGLPAPIEKTISKTKGQPREPQVYTLPPSREEMTKNQVSLTCLVKGFYPSDIAVEWESNGQPENNYKTTPPMLDSDGSFFLYSKLTVDKSRWQQGNVFSCSVMHEALHNHYTQKSLSLSPGK
Human TGFβ2
  Degree of Ligand Inhibition: Negligible (ligand TGFβ2): TGFβ2
Human TGFβ1; [2]
  Degree of Ligand Inhibition: Moderate (ligand TGFβ1): TGFβ1
Human TGFβ1
  inhibition of TGFβ1 activity / signaling (in words): maintains some TGFβ1 inhibitor effects
Human TGFβ3; [2]
  Degree of Ligand Inhibition: Negligible (ligand TGFβ3): TGFβ3
Human TGFβ3
  inhibition of TGFβ3 activity / signaling (in words): greatly diminished ability to inhibit

B2: TβRIIshort(23-153/N70D)-G2Fc: C-terminally truncated short-isoform ECD with N70D substitution fused to IgG2 Fc; SEQ ID NO: 41 (unprocessed), 61 (mature) (protein)
chain: TIPPHVQKSVNNDMIVTDNNGAVKFPQLCKFCDVRFSTCDNQKSCMSDCSITSICEKPQEVCVAVWRKNDENITLETVCHDPKLPYHDFILEDAASPKCIMKEKKKPGETFFMCSCSSDECNDNIIFSEEYTGGGVECPPCPAPPVAGPSVFLFPPKPKDTLMISRTPEVTCVVVDVSHEDPEVQFNWYVDGVEVHNAKTKPREEQFNSTFRVVSVLTVVHQDWLNGKEYKCKVSNKGLPAPIEKTISKTKGQPREPQVYTLPPSREEMTKNQVSLTCLVKGFYPSDIAVEWESNGQPENNYKTTPPMLDSDGSFFLYSKLTVDKSRWQQGNVFSCSVMHEALHNHYTQKSLSLSPGK
Human TGFβ2
  Degree of Ligand Inhibition: Negligible (ligand TGFβ2): TGFβ2
Human TGFβ1; [3]
  IC50: 17.7 nM
Human TGFβ1
  inhibition of TGFβ1 activity / signaling (in words): greatly diminished ability to inhibit TGFβ1
Human TGFβ3; [2]
  Degree of Ligand Inhibition: Potent (ligand TGFβ3): TGFβ3
Human TGFβ3
  inhibition of TGFβ3 activity / signaling (in words): virtually undiminished ability to inhibit TGFβ3

B3: TβRIIshort(23-153)-G2Fc: C-terminally truncated (6 aa) short-isoform ECD fused to IgG2 Fc; SEQ ID NO: 37 (unprocessed), 59 (mature) (protein)
chain: TIPPHVQKSVNNDMIVTDNNGAVKFPQLCKFCDVRFSTCDNQKSCMSNCSITSICEKPQEVCVAVWRKNDENITLETVCHDPKLPYHDFILEDAASPKCIMKEKKKPGETFFMCSCSSDECNDNIIFSEEYTGGGVECPPCPAPPVAGPSVFLFPPKPKDTLMISRTPEVTCVVVDVSHEDPEVQFNWYVDGVEVHNAKTKPREEQFNSTFRVVSVLTVVHQDWLNGKEYKCKVSNKGLPAPIEKTISKTKGQPREPQVYTLPPSREEMTKNQVSLTCLVKGFYPSDIAVEWESNGQPENNYKTTPPMLDSDGSFFLYSKLTVDKSRWQQGNVFSCSVMHEALHNHYTQKSLSLSPGK
Human TGFβ1; [3]
  IC50: 2.62 nM
Human TGFβ3; [3]
  IC50: 0.14 nM

B4: TβRIIshort(35-159)-G2Fc: N-terminally truncated (12 aa) short-isoform ECD fused to IgG2 Fc; SEQ ID NO: 33 (unprocessed), 57 (mature) (protein)
chain: DMIVTDNNGAVKFPQLCKFCDVRFSTCDNQKSCMSNCSITSICEKPQEVCVAVWRKNDENITLETVCHDPKLPYHDFILEDAASPKCIMKEKKKPGETFFMCSCSSDECNDNIIFSEEYNTSNPDTGGGVECPPCPAPPVAGPSVFLFPPKPKDTLMISRTPEVTCVVVDVSHEDPEVQFNWYVDGVEVHNAKTKPREEQFNSTFRVVSVLTVVHQDWLNGKEYKCKVSNKGLPAPIEKTISKTKGQPREPQVYTLPPSREEMTKNQVSLTCLVKGFYPSDIAVEWESNGQPENNYKTTPPMLDSDGSFFLYSKLTVDKSRWQQGNVFSCSVMHEALHNHYTQKSLSLSPGK
Human TGFβ2
  Degree of Ligand Inhibition: Negligible (ligand TGFβ2): TGFβ2
Human TGFβ1; [2]
  Degree of Ligand Inhibition: Moderate (ligand TGFβ1): TGFβ1
Human TGFβ1
  inhibition of TGFβ1 activity / signaling (in words): maintains some TGFβ1 inhibitor effects
Human TGFβ3; [2]
  Degree of Ligand Inhibition: Negligible (ligand TGFβ3): TGFβ3
Human TGFβ3
  inhibition of TGFβ3 activity / signaling (in words): greatly diminished ability to inhibit

B5: TβRIIshort(23-159/D110K)-G2Fc: full-length short-isoform ECD with D110K substitution fused to IgG2 Fc; SEQ ID NO: 25 (unprocessed), 53 (mature) (protein)
chain: TIPPHVQKSVNNDMIVTDNNGAVKFPQLCKFCDVRFSTCDNQKSCMSNCSITSICEKPQEVCVAVWRKNDENITLETVCHDPKLPYHKFILEDAASPKCIMKEKKKPGETFFMCSCSSDECNDNIIFSEEYNTSNPDTGGGVECPPCPAPPVAGPSVFLFPPKPKDTLMISRTPEVTCVVVDVSHEDPEVQFNWYVDGVEVHNAKTKPREEQFNSTFRVVSVLTVVHQDWLNGKEYKCKVSNKGLPAPIEKTISKTKGQPREPQVYTLPPSREEMTKNQVSLTCLVKGFYPSDIAVEWESNGQPENNYKTTPPMLDSDGSFFLYSKLTVDKSRWQQGNVFSCSVMHEALHNHYTQKSLSLSPGK
Human TGFβ2
  Degree of Ligand Inhibition: Negligible (ligand TGFβ2): TGFβ2
Human TGFβ1; first experiment (D110K)
  IC50: > 73.6 nM
Human TGFβ1
  inhibition of TGFβ1 activity / signaling (in words): loss of inhibition
Human TGFβ3; [2]
  Degree of Ligand Inhibition: Moderate (ligand TGFβ3): TGFβ3
Human TGFβ3
  inhibition of TGFβ3 activity / signaling (in words): intermediate inhibition

B6: TβRIIshort(23-159)-G2Fc: wild-type human TβRII short isoform ECD (23-159) fused to human IgG2 Fc; SEQ ID NO: 50, with TPA leader SEQ ID NO: 52 (protein)
chain: TIPPHVQKSVNNDMIVTDNNGAVKFPQLCKFCDVRFSTCDNQKSCMSNCSITSICEKPQEVCVAVWRKNDENITLETVCHDPKLPYHDFILEDAASPKCIMKEKKKPGETFFMCSCSSDECNDNIIFSEEYNTSNPDTGGGVECPPCPAPPVAGPSVFLFPPKPKDTLMISRTPEVTCVVVDVSHEDPEVQFNWYVDGVEVHNAKTKPREEQFNSTFRVVSVLTVVHQDWLNGKEYKCKVSNKGLPAPIEKTISKTKGQPREPQVYTLPPSREEMTKNQVSLTCLVKGFYPSDIAVEWESNGQPENNYKTTPPMLDSDGSFFLYSKLTVDKSRWQQGNVFSCSVMHEALHNHYTQKSLSLSPGK
Human TGFβ2
  Degree of Ligand Inhibition: Negligible (ligand TGFβ2): TGFβ2
Human TGFβ1; first experiment (D110K)
  IC50: 1.73 nM
Human TGFβ1; [2]
  Degree of Ligand Inhibition: Potent (ligand TGFβ1): TGFβ1
Human TGFβ3; first experiment (D110K)
  IC50: 0.14 nM
Human TGFβ3; [2]
  Degree of Ligand Inhibition: Potent (ligand TGFβ3): TGFβ3

— patent US20250042963A1, “METHODS FOR TREATING MYELOPROLIFERATIVE DISORDERS” (Acceleron Pharma Inc., priority 2015, published 2025)
